Source: patent US20130288266A1 (ROCHE DIAGNOSTICS OPERATIONS, published 2013)
Several values for one entry are separate records, joined by “and”; a condition that tells them apart may be missing. Equal entries are not always repeated.

What was measured:
[1] = molecular target: T1, IGF-1R in untreated IGF-1R overexpressing 3T3 cells (UniProt P08069 31-1367, limits assumed); assay: IHC (Ventana BenchMark XT), ssFab' on 8xC18 linker, FFPE 3T3 cells
T1 construct: whole, on cells; also called IGF-1R (unstimulated)
Method: (§1) In order to test the specificity of the anti-pIGF-1R dual binder molecule an elaborate test system based on formalin-fixed paraffin-embedded (FFPE) 3T3 cells was used. 3T3 cells had been stably transfected with either IGF-1R or IR expression vectors. Cells were fixed with formalin and embedded in paraffin according to standard protocols. Prior to fixation cells were stimulated with 100 ng/ml of either IGF-1 or Insulin to induce IGF1-R or IR phosphorylation or were left untreated.
(§2) A biotin label within the linker molecule served as a detection tag for the streptavidin-based Ventana iVIEW DAB detection kit.

[2] = molecular target: T2, IR (insulin receptor) in untreated IR overexpressing 3T3 cells (UniProt P06213 28-1382, limits assumed); assay: as above
T2 construct: whole, on cells; also called IR (unstimulated)
Method: as §1, §2

[3] = molecular target: T3, phosphorylated IR in IR overexpressing 3T3 cells stimulated with Insulin (UniProt P06213 28-1382, limits assumed, phosphorylated after stimulation with 100 ng/ml Insulin); assay: as above
T3 construct: whole, on cells; also called pIR (cells)
Method: as §1, §2

[4] = molecular target: T4, IGF-1R(1340-1366)[1346-pTyr]amid, phosphorylated IGF-1R peptide (phosphotyrosine at 1346 (IGF-1R numbering); C-terminal amide; in Examples 2.6 and 2.7 a biotinylated PEG-linker bound via glutamic acid at position 1340); assay: SPR (Biacore 3000, 25 C), dual binder on biotinylated linker on SA chip, peptide injected; T40 linker (linker 10, spacer T20-Biotin-dT-T20)
T4 construct: also called pIGF-1R peptide; pIGF-1R
T4 peptide: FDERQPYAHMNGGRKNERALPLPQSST

[5] = molecular target: T4, IGF-1R(1340-1366)[1346-pTyr]amid, …; assay: SPR (Biacore 3000, SA sensor, 25 C): both ssFab' hybridized on the immobilized biotinylated T40-Bi linker, peptide injected as analyte
Method: (§3) As a control, buffer was injected instead of the ssFabs.
(§4) The system was regenerated after each concentration step with a 12 sec pulse of 250 mM NaOH and was reloaded with ssFab′ ligand.

[6] = molecular target: T5, IGF-1R(1340-1366)amid, non-phosphorylated IGF-1R peptide (C-terminal amide; in Example 2.6 a biotinylated PEG-linker bound via glutamic acid at position 1340); assay: as above
T5 construct: also called Glu(Bi-PEG-1340]amid
T5 peptide: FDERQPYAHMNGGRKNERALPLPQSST
Method: as §3, §4

[7] = molecular target: T4, IGF-1R(1340-1366)[1346-pTyr]amid, …; assay: SPR (Biacore 3000, 25 C), dual binder on biotinylated linker on SA chip, peptide injected; T0 linker (no spacer)
[8] = molecular target: T4, IGF-1R(1340-1366)[1346-pTyr]amid, …; assay: SPR (Biacore 3000, SA sensor, 25 C): both ssFab' hybridized on the immobilized biotinylated T0-Bi linker, peptide injected as analyte
Method: as §3, §4

[9] = molecular target: T5, IGF-1R(1340-1366)amid, …; assay: as above
Method: as §3, §4

[10] = molecular target: T4, IGF-1R(1340-1366)[1346-pTyr]amid, …; assay: SPR sandwich assay (Biacore T100, 13 C), FIG. 7
Method: A Biacore™ T100 instrument (GE Healthcare) was used with a Biacore™ CM5 sensor mounted into the system. The sensor was preconditioned by a 1 min injection at 100 μl/min of 0.1% SDS, 50 mM NaOH, 10 mM HCl and 100 mM H3PO4.
The Biacore™ T100 System was driven under the control software V1.1.1. Polyclonal rabbit IgG antibody <IgGFCγM>R (Jackson ImmunoResearch Laboratories Inc.) at 30 μg/ml in 10 mM Na-Acetate pH 4.5 was immobilized at 10 000 RU on the flow cells 1, 2, 3, and 4, respectively, via EDC/NHS chemistry according to the manufacturer's instructions. Finally, the sensor surface was blocked with 1M ethanolamine. The complete experiment was driven at 13° C.
3 μM of an IgG fragment mixture (of IgG classes IgG1, IgG2a, IgG2b, IgG3) containing blocking solution was injected at 30 μl/min for 5 min.

[11] = molecular target: T4, IGF-1R(1340-1366)[1346-pTyr]amid, …; assay: SPR (Biacore 2000, 25 C), biotinylated peptide on SA chip, 100 nM ssFab' injected
Method: (§5) 100 nM of analyte (i.e. in these experiments a bi-valent dual binding agent) in solution was injected at 50 μl/min for 240 sec association time and dissociation was monitored for 500 sec. Efficient regeneration was achieved by using a 1 min injection step at 50 μl/min with 80 mM NaOH. Flow cell 1 served as a reference. A blank buffer injection was used instead of an antigen injection to double reference the data by buffer signal subtraction.
(§6) (The digoxigenylation of the middle thymidine (T(-Dig)) in the above linkers is without relevance to these experiments.)
(§7) Report points were set at the end of the analyte association phase (Binding Late, BL) and at the end of the analyte dissociation phase (Stability Late, SL) to monitor the response unit signal heights of each interaction. The dissociation rates kd (1/s) were calculated according to a linear 1:1 Langmuir fit using the Biacore™ evaluation software 4.1. The complex halftimes in minutes were calculated upon the formula In(2)/(60*kd).

[12] = molecular target: T5, IGF-1R(1340-1366)amid, …; assay: as above
Method: as §5, §6, §7

[13] = molecular target: T4, IGF-1R(1340-1366)[1346-pTyr]amid, …; assay: SPR (Biacore 3000, SA sensor, 25 C): only ssFab' 1.4.168 hybridized on the immobilized biotinylated T0-Bi linker, peptide injected as analyte
Method: as §3, §4

[14] = molecular target: T5, IGF-1R(1340-1366)amid, …; assay: as above
Method: as §3, §4

[15] = molecular target: T4, IGF-1R(1340-1366)[1346-pTyr]amid, …; assay: SPR (Biacore 3000, SA sensor, 25 C): only ssFab' 1.4.168 hybridized on the immobilized biotinylated T40-Bi linker, peptide injected as analyte
Method: as §3, §4

[16] = molecular target: T5, IGF-1R(1340-1366)amid, …; assay: as above
Method: as §3, §4

[17] = molecular target: T4, IGF-1R(1340-1366)[1346-pTyr]amid, …; assay: SPR (Biacore 3000, SA sensor, 25 C): only ssFab' 1.4.168 hybridized on the immobilized biotinylated 8xC18 linker, pIGF-1R peptide injected as analyte
Method: (§8) 89 RU amino-PEO-biotin were captured on the reference flow cell 1.
(§9) The system was regenerated after each concentration step with a 12 sec pulse of 250 mM NaOH and was reloaded with ssFab ligand.

[18] = molecular target: T4, IGF-1R(1340-1366)[1346-pTyr]amid, …; assay: SPR (Biacore 3000, 25 C)
[19] = molecular target: T2, IR (insulin receptor) in untreated IR …; assay: IHC (Ventana BenchMark XT), FFPE 3T3 cells
Method: as §1, §2

[20] = molecular target: T3, phosphorylated IR in IR overexpressing …; assay: IHC (Ventana BenchMark XT), FFPE 3T3 cells
Method: as §1, §2

[21] = molecular target: T4, IGF-1R(1340-1366)[1346-pTyr]amid, …; assay: SPR (Biacore 3000, 25 C), ssFab's on biotinylated 8xC18 linker on SA chip, pIGF-1R peptide injected
Method: as §9

[22] = molecular target: T4, IGF-1R(1340-1366)[1346-pTyr]amid, …; assay: SPR (Biacore 3000, SA sensor, 25 C): both ssFab' hybridized on the immobilized biotinylated 8xC18 linker, pIGF-1R peptide injected as analyte
Method: as §8, §9

[23] = molecular target: T6, human_HER3(1242-1267)-Bi-PEG-amide (human, C-terminal Bi-PEG-amide (biotin); singly grafted on streptavidin); assay: SPR kinetic screening (Biacore A100), mAb captured by anti-mouse IgG Fc, peptide singly grafted on streptavidin injected
T6 construct: Injected as analyte, singly grafted on streptavidin
T6 peptide: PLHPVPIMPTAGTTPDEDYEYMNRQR
Method: A Biacore™ A100 instrument under control of the software version V1.1 is used. A Biacore™ CM5 chip is mounted into the instrument and is hydrodynamically addressed conditioned according to the manufacturer's instructions. As a running buffer an HBS-EP buffer is used (10 mM HEPES (pH 7.4), 150 mM NaCl, 1 mM EDTA, 0.05% (w/v) P20). A polyclonal rabbit anti-mouse IgG Fc capture antibody is immobilized at 30 μg/ml in 10 mM sodium acetate buffer (pH 4.5) to spots 1, 2, 4 and 5 in flow cells 1, 2, 3 and 4 at 10,000 RU. The antibody is covalently immobilized via NHS/EDC chemistry. The sensor is deactivated thereafter with a 1 M ethanolamine solution. Spots 1 and 5 are used for the determination and spots 2 and 4 are used as reference. Prior to application to the sensor chip the hybridoma supernatants containing mAbs are diluted 1:2 in HBS-EP buffer. The diluted solution is applied at a flow rate of 30 μl/min for 1 min. […] Thereafter, the signal is recorded for 5 min dissociation time. The sensor is regenerated by injecting a 10 mM glycine-HCl solution (pH 1.7) for 2 min, at a flow rate of 30 μl/min. The dissociation rate constant kd (1/s) is calculated according to a Langmuir model using the evaluation software according to the manufacturer's instructions.

T3 sequence (P06213 28-1382 limits assumed): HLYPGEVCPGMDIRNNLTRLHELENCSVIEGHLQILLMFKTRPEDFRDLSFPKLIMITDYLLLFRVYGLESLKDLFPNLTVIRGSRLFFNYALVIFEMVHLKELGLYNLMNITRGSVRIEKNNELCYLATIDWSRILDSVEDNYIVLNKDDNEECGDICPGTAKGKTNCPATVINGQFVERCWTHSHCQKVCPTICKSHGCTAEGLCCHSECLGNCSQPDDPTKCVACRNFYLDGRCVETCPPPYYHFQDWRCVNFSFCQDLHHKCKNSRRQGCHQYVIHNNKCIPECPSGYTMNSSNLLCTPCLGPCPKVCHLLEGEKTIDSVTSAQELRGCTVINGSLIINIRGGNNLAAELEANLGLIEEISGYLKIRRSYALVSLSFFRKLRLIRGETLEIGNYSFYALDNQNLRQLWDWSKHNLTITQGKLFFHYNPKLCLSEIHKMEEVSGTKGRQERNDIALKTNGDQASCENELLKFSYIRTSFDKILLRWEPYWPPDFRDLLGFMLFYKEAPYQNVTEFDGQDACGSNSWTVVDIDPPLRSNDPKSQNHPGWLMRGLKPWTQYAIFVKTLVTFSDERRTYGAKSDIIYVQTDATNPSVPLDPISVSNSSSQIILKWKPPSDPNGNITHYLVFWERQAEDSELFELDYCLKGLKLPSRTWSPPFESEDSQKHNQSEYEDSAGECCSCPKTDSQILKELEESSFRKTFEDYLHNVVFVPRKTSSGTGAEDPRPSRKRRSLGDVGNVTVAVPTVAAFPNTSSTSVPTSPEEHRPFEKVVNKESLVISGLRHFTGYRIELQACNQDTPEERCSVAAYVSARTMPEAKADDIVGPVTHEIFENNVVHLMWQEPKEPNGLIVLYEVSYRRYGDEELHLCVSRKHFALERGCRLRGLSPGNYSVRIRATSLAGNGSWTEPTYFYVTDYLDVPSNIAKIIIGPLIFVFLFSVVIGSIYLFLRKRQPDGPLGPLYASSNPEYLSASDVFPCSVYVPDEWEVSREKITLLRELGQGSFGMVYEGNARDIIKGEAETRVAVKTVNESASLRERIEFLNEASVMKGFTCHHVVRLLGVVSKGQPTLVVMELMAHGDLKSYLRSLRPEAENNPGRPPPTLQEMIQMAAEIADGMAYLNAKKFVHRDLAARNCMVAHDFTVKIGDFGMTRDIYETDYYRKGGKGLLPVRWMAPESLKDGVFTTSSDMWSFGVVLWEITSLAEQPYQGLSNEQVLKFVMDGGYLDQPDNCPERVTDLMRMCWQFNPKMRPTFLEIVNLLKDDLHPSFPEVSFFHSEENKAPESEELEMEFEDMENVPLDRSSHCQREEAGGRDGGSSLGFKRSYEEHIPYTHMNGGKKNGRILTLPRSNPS
T2 sequence (P06213 28-1382 limits assumed): as above
T1 sequence (P08069 31-1367 limits assumed): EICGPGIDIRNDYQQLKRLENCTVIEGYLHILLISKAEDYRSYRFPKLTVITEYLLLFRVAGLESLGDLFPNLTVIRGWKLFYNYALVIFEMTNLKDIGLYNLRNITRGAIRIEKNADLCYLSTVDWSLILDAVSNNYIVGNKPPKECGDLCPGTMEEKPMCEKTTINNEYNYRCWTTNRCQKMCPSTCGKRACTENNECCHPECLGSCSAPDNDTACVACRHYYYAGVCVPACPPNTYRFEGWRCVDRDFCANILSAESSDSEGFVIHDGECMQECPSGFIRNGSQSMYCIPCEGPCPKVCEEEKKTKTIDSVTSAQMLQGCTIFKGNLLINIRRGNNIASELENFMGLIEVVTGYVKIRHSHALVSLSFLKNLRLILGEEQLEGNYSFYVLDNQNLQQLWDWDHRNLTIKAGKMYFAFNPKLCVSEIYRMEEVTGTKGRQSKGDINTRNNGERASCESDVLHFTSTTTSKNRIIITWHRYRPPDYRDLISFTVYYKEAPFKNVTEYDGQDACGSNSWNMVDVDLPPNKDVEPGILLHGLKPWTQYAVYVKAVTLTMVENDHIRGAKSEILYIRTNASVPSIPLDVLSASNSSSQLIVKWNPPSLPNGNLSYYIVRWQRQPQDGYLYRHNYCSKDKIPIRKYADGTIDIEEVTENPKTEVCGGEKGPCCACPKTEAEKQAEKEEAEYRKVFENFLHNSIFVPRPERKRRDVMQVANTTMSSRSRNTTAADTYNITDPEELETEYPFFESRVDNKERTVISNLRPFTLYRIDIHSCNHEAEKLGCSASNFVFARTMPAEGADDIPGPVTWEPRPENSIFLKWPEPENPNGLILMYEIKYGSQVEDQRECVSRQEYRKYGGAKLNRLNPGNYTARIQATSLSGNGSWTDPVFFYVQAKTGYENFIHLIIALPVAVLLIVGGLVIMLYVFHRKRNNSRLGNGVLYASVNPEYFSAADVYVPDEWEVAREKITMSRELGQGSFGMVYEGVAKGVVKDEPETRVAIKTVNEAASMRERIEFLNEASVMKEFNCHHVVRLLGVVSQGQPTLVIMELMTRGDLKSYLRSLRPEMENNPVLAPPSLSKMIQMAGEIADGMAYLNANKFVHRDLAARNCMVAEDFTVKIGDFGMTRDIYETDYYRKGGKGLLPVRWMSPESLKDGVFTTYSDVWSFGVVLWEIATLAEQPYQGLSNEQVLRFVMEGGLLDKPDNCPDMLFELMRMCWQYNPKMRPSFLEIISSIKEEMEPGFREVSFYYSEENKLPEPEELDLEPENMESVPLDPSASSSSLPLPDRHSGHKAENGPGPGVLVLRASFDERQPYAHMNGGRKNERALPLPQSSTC

B1: ssFab' 30.4.33 (Fab' of mAb 30.4.33 linked to ssDNA) (Fab, V domains shown)
VH: EVQLQESGPEVAKPGASVKMSCKASGYTFTDYIIHWVKQRPGQDLEWIGYINPYNDKSKYNEKFKDKATLTSDRSSSTSYMDLSTLTSDDSAVYYCTRHGYYRSDGFDYWGQGTTLTVSS
VL: DIVLTQSPTIMSASPGEKVTMTCRASSSVSSSSLHWYQQKPGSSPKLWIYSTSTLASGVPARFSGSGSGTSYSLTISGVETEDAATYYCQQYGTSPYTFGSGTKVDIK
modifications: ssDNA oligonucleotide coupled to the Fab' hinge region
binding result [1]: no binding (tested: 0.5 µg/ml) | binding result [2]: no binding (tested: 0.5 µg/ml) | binding result [3]: no binding (tested: 0.5 µg/ml)

B2: T40-T-Bi linker dual binder with ssFab' 8.1.2 and ssFab' 1.4.168 (linker 10 of example 2.4) (bispecific antibody, V domains shown)
VH 1: EVQLQQSGPALVKPGASVKMSCKASGFTFTSYVIHWVKQKPGQGLEWIGYLNPYNDNTKYNEKFKGKATLTSDRSSSTVYMEFSSLTSEDSAVYFCARRGIYAYDHYFDYWGQGTSLTVSS
VL 1: QIVLTQSPAIMSASPGEKVTLTCSASSSVNYMYWYQQKPGSSPRLLIYDTSNLASGVPVRFSGSGSVTSYSLTISRMEAEDAATYYCQQWSTYPLTFGAGTKLELK
VH 2: QCDVKLVESGGGLVKPGGSLKLSCAASGFTFSDYPMSWVRQTPEKRLEWVATITTGGTYTYYPDSIKGRFTISRDNAKNTLYLQMGSLQSEDAAMYYCTRVKTDLWWGLAYWGQGTLVTVSA
VL 2: QLVLTQSSSASFSLGASAKLTCTLSSQHSTYTIEWYQQQPLKPPKYVMELKKDGSHTTGDGIPDRFSGSSSGADRYLSISNIQPEDESIYICGVGDTIKEQFVYVFGGGTKVTVLG
modifications: 17 mer ssDNA (SEQ ID NO:6, fluorescein) on hinge cysteine; 19 mer ssDNA (SEQ ID NO:5, Cy5) on hinge cysteine
notes: Two Fab'-ssDNA conjugates hybridised on biotinylated 77-mer DNA linker 10 (T20-Biotin-dT-T20) captured on a streptavidin chip; also called T40-Bi
Kd [4]: 0.01 nM | Kd [5]: 0.0125 nM | Kd [6]: 0.973 nM and 1 nM | t1/2 diss [6]: 4.3 min

B3: T0 dual binding agent with ssFab' 8.1.2 and ssFab' 1.4.168 on the biotinylated T0-Bi 37-mer ssDNA-Linker (linker 17 of example 2.4) (bispecific antibody, V domains shown)
VH 1: B2 VH 1
VL 1: B2 VL 1
VH 2: B2 VH 2
VL 2: B2 VL 2
modifications: 17 mer ssDNA (SEQ ID NO:6, fluorescein) on hinge cysteine; 19 mer ssDNA (SEQ ID NO:5, Cy5) on hinge cysteine
Kd [7]: 0.03 nM | Kd [8]: 0.0344 nM | Kd [9]: 1.2 nM and 1 nM | t1/2 diss [9]: 5 min

B4: murine monoclonal antibody M-1.4.168-IgG (antibody, V domains shown)
VH: DVKLVESGGGLVKPGGSLKLSCAASGFTFSDYPMSWVRQTPEKRLEWVATITTGGTYTYYPDSIKGRFTISRDNAKNTLYLQMGSLQSEDAAMYYCTRVKTDLWWGLAYWGQGTLVTVSA
VL: B2 VL 2
notes: Whole murine IgG from hybridoma; also called mAb 1.4.168; M-1.004.168-IgG
binding result [10]: binds

B5: ssFab' 1.4.168 (Fab' of mAb 1.4.168 covalently linked to 17 mer ssDNA) (Fab, V domains shown)
VH: B4 VH
VL: B2 VL 2
modifications: 17 mer ssDNA comprising SEQ ID NO:6 with fluorescein, coupled through maleimide to a cysteine of the Fab' hinge region
notes: Fab' from pepsin cleavage and cysteamine reduction of a murine monoclonal IgG; also called ssFab' 1.004.168; fluorescein-ssFab' 1.4.168
binding result [2]: no binding (tested: 0.5 µg/ml) | binding result [3]: no binding (tested: 0.5 µg/ml) | T1/2 dis [11]: 3 min | T1/2 dis [12]: 3 min | Kd [13]: 2.59 nM and 3 nM | t1/2 diss [13]: 4 min | Kd [14]: 1.35 nM and 1 nM | t1/2 diss [14]: 4 min | Kd [15]: 2.14 nM and 2 nM | Kd [16]: 1.1 nM and 1 nM | t1/2 diss [16]: 3 min | Kd [17]: 2.96 nM and 3 nM

B6: anti-pIGF-1R dual binder composed of ssFab' 1.4.168, ssFab' 30.4.33 and an 8xC18 linker molecule (linker 14 of example 2.4) (bispecific antibody, V domains shown)
VH 1: B1 VH
VL 1: B1 VL
VH 2: B2 VH 2
VL 2: B2 VL 2
modifications: 17 mer ssDNA (SEQ ID NO:6) on hinge cysteine; ssDNA oligonucleotide on the Fab' hinge region
notes: Two Fab'-ssDNA conjugates hybridised on biotinylated linker 14 ((Spacer C18)4-(Biotin-dT)-(Spacer C18)4)
fold affinity improvement compared to ssFab' 1.4.168 alone [18]: 300 fold | fold affinity improvement compared to ssFab' 30.4.33 alone [18]: 200 fold | fold lower off-rate than ssFab' 1.4.168 [18]: 230 fold | fold lower off-rate than ssFab' 30.4.33 [18]: 110 fold | binding result [19]: no binding (tested: 0.5 µg/ml per ssFab') | binding result [20]: no binding (tested: 0.5 µg/ml per ssFab') | Kd [21]: ~0.01 nM | koff [21]: 1.39e-05 s⁻¹ | Kd [22]: 0.0112 nM and 0.011 nM | kon [22]: 1.24e+06 M⁻¹ s⁻¹

B7: monoclonal antibody 7.2.32 directed against HER3(1242-1267) (antibody, V domains shown)
VH: EVQLQESGGGLVQPKGSLQLSCAASGFTFNTYAMHWVRQAPGKGLEWVARIRTESSDYATDYADSVKDRFIISRDDSQNMLYLQMNNLKSEDTAIYYCVRSSGFDYWGQGTTLTVSS
VL: DIQMTQSPSLPVSLGDQASISCRSSQSLVHDNGNTYLHWFLQKPGQSPKLLIYKVSNRFSGVPDRFGGSGSGTDFTLKISGVEAEDLGVYFCSQGTHVPTFGGGTKLEIK
notes: Mouse monoclonal IgG from hybridoma supernatant, captured by anti-mouse IgG Fc; also called mAb 7.2.32
koff [23]: 0.0023 s⁻¹
